Earlier results as cited in PMC5274714.

Biological target: human serum albumin (Homo sapiens) (UniProt P02768)
Assay: SPR

Substance: protein G ABD3 (from UniProt P19909)
- Kd: 4 nM
